Assay [1] addresses T1, endogenous calreticulin (CALR) of HEK293 cells (human (endogenous in HEK293S GnTI-), UniProt P27797 18-417).
T1 sequence (looked up): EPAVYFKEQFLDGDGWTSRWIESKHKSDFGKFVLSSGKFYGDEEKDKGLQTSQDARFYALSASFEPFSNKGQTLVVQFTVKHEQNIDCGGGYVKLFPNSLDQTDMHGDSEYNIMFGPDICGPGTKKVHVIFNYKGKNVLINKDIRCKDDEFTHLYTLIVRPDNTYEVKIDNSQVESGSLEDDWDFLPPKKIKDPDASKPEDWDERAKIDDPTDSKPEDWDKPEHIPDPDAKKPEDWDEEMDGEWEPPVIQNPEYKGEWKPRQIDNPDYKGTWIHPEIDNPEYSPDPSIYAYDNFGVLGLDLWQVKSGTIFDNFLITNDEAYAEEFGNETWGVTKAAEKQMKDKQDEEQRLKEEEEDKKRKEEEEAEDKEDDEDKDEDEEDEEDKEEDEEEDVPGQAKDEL
The experiment in a line: cryo-EM structure.

For assay [2], the target named is T2, human Wntless (WLS) with a C-terminal Flag tag (human, UniProt Q5T9L3 1-541).
T2 sequence: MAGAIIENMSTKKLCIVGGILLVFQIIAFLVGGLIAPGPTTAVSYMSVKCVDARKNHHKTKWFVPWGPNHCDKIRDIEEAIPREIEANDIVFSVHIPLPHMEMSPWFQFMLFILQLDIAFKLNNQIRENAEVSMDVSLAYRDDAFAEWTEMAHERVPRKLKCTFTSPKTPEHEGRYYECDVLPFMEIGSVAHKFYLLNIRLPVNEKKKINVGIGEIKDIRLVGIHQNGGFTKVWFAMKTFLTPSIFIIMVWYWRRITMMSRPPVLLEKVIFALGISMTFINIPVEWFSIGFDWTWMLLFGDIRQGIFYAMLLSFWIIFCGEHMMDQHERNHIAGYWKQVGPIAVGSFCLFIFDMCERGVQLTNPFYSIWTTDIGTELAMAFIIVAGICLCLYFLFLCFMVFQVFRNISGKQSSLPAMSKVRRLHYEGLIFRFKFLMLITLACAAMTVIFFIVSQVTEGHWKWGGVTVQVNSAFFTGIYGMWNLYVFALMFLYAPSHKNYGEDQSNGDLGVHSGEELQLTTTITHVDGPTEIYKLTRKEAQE
The experiment in a line: cryo-EM structure.

The target in assay [3] is T3, human full-length RECK without a tag (human, UniProt O95980 23-942).
T3 sequence (looked up): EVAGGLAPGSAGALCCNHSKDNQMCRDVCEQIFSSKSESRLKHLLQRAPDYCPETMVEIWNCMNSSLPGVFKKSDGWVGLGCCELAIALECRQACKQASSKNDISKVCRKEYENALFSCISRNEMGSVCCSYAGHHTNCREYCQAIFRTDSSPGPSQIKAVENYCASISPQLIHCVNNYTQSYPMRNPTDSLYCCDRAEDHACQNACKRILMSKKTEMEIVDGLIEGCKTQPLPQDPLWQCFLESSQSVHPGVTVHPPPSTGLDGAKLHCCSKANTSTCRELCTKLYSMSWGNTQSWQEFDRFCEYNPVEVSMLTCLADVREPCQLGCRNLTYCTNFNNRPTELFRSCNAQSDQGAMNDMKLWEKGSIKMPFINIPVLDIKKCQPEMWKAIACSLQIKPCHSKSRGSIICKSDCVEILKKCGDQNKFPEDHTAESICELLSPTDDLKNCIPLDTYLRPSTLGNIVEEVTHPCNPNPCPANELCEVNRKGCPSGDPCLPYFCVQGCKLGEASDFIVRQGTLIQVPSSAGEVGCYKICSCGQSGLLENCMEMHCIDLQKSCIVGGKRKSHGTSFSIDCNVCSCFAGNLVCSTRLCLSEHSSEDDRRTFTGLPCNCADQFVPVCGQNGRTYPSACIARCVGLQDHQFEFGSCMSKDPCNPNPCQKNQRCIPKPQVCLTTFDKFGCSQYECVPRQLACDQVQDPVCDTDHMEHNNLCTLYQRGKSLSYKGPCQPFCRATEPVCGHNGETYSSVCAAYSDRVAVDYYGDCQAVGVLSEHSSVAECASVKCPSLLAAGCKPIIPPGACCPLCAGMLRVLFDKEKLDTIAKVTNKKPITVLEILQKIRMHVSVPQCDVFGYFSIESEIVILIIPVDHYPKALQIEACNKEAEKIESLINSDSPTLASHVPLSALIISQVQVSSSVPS
The experiment in a line: cryo-EM structure.

Assay [4] addresses T1, endogenous calreticulin (CALR) of …. The experiment in a line: cryo-EM structure. The source holds these as a separate data set.
In assay [5] the target is T2, human Wntless (WLS) with a C-terminal …. The experiment in a line: co-IP.

Where two headings read alike, the source gives them in different places.

B1: human Wnt3a without a tag (ligand, UniProt P56704 19-352, looked up)
chain: SYPIWWSLAVGPQYSSLGSQPILCASIPGLVPKQLRFCRNYVEIMPSVAEGIKIGIQECQHQFRGRRWNCTTVHDSLAIFGPVLDKATRESAFVHAIASAGVAFAVTRSCAEGTAAICGCSSRHQGSPGKGWKWGGCSEDIEFGGMVSREFADARENRPDARSAMNRHNNEAGRQAIASHMHLKCKCHGLSGSCEVKTCWWSQPDFRAIGDFLKDKYDSASEMVVEKHRESRGWVETLRPRYTYFKVPTERDLVYYEASPNFCEPNPETGSFGTRDRTCNVSSHGIDGCDLLCCGRGHNARAERRREKCRCVFHWCCYVSCQECTRVYDVHTCK
modifications: palmitoleate moiety (PAM); N-glycan at Asn298
On to B1, for which the binding result in assay [1] and in assay [2] was “binds” in each case.

B2: human Wnt7a with a C-terminal GG linker and 6xHis tag (ligand, UniProt O00755 32-349, looked up)
chain: LGASIICNKIPGLAPRQRAICQSRPDAIIVIGEGSQMGLDECQFQFRNGRWNCSALGERTVFGKELKVGSREAAFTYAIIAAGVAHAITAACTQGNLSDCGCDKEKQGQYHRDEGWKWGGCSADIRYGIGFAKVFVDAREIKQNARTLMNLHNNEAGRKILEENMKLECKCHGVSGSCTTKTCWTTLPQFRELGYVLKDKYNEAVHVEPVRASRNKRPTFLKIKKPLSYRKPMDTDLVYIEKSPNYCEEDPVTGSVGTQGRACNKTAPQASGCDLMCCGRGYNTHQYARVWQCNCKFHWCCYVKCNTCSERTEMYTCK
modifications: palmitoleate moiety (PAM) on the conserved serine of hairpin 2; N-glycan at Asn295
As for B2, the binding result in assay [3] and in assay [4] was “binds” throughout.

B3: human Wnt7a with a C-terminal GG linker and Strep tag (ligand, UniProt O00755 32-349, looked up)
chain: B2 chain
modifications: palmitoleate moiety (PAM) on the conserved serine of hairpin 2; N-glycan at Asn295
Take B3: the binding result in assay [5] is reported as “binds”.

The record behind these values is article PMC10841698 (Cell, 2023).
